A protein production outcome set (Wang et al. 2014)

Assay: label from the status in PepcDB records
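Note: failed if final PepcDB status was selected cloned or expressed and not failed if soluble or beyond.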

Sequence: MDTGDKEAGEQIVCKPSFFRVSDNHHHPSRAGCPLHQGQARTGSGSPRGQVAGAEKGGDEGGRRGSGGGSSEPRDRRRREQPRAAGDEDGSAGRAHGAQGHGHGGVCGARSQRPALLKPGSRRARGAGGGRMERKGLAARASGNPSPPALGEGPRPGPPPCVPSGGGAPERGQAGAAAEPAELIRRAHEFKSQGAQCYKDKKFREAIGKYHRALLELKGLLPPPGERERDARPASPAGIPKASRLSEEQSKTVEAIEIDCYNSLAACLLQAELVNYERVKEYCLKVLKKEGENFKALYRAGVAFYHLGDYDKALYYLKEARTRQPSDTNVIRYIQLTEMKLSRCSQREKEAM
- protein production: failed

Sequence: MDTGPDQSYFSGNHWFVFSVYLLTFLVGLPLNLLALVVFVGKLRCRPVAVDVLLLNLTASDLLLLLFLPFRMVEAANGMHWPLPFILCPLSGFIFFTTIYLTALFLAAVSIERFLSVAHPLWYKTRPRLGQAGLVSVACWLLASAHCSVVYVIEFSGDISHSQGTNGTCYLEFWKDQLAILLPVRLEMAVVLFVVPLIITSYCYSRLVWILGRGGSHRRQRRVAGLVAATLLNFLVCFGPYNVSHVVGYICGESPVWRIYVTLLSTLNSCVDPFVYYFSSSGFQADFHELLRRLCGLWGQWQQESSMELKEQKGGEEQRADRPAERKTSEHSQGCGTGGQVACAEN
- protein production: failed

Sequence: MDTKTKRGFWIGINYSKTNLSLITASAILSIAFYLIYYNTKKTVAAVLFLALAIGAAFFFIKPIVDRDNKKNDINSNIPFFITAFSSLVTSDANIIDVLILLSKKEKLGYLRVEIEKILNLVKNWGMGLAEAINFVAKKTPSDLFSDFLTRFSHAIDSGQDLEEFTRSEVFSTMNSFETAYVSALYSFDLYRDIYVSLLLSFAFLITFIMIMPILIPINVFSVLMLSLIMVALGEFMLVYGISIVLPKDPLWHRTGIKTDTDIKMRNLFLISGTFSMMIFIVIDVMKIMFRIPFYFSFALIVTPLAYPSYVGTKMEREVQKKDEMYGSFIRSLSGSASARGNLLIDALKAIVMHDFGILSKDVNKLYRRLLYRINSLKAWKMFSADTGSHLIEIYSETYAESIDLGADALKSGMVISENFEKIVGLRKRKHSSVTSFVGIMYGITAGLAFSLAISYGILKIIDGIFSSFNLSSLGMTGIFLSPPSSSIFLIEIFLLIILFVHSFIGGISLKVSDGGRIINGLHHTVLMIWIVSFVVYGTMYITTILLGSTVS
- protein production: failed

Sequence: MDTLAYLHLAETYETSTTDESSPEIPWTKNQSSALMLVASFAMGSLNWCLPTVAALKKGHRNPQVASLQQKLRASGYFPQVATGYFGSVTEAAVKRFQQANGLKADGIVGAATLAALESSIGVSESSITDPQIATSKSSLKQGDISDRVMSLQEKLQADGYYQGAITGNFDAATQAAVIQFQQANRLVVDGIVGPQTSSVLASSTRKLAASLPQKTTLEPFLTQQPQNQVKISPQSAAPPSPSQKMRLIKTISGKISPKSVVYSGNGLFFAQNMMYNHTITVYDRNYELVKVIPDEVDLSKYGHSRFKGKYRGAPVEASFSHNGKYAWISNYQMYGPGFNNPGSDKCHPSQKTDKSFLYRINTETLKIDRVIPVGSVPKFVATSTDENLILVSNWCSWDLSVVDINQNQEIKRIKLGPYPRGIVVDPASETAYVAVMGSYNIAKVNLRDFSVQWLRNIGSSPRHLNIDPAGKYLYASLNGEGKIAKISLPQGNLVKKIATGNAPRSMVLSANGQTLYVVNYGEDTVSKVRTSDMKVLQKVKVEPDPIGITYDPQTREVWVACYSGNIMIFQD
- protein production: failed

Sequence: MDTLDGLKTVVAVVETNSFTAASDRLGISKALVSKYVGEVENQLGIRLFNRTTRQLALTDSGRRYYEEAIILLEQFSAMVDNVTGEQTAPRGLLRISAPVTFGEMRLAPLLPKFIALYPDLTVELVLTNGAIDMLEEGIDVRLRIGGVDDSNMIARHLTNFPLVLSASPNYAQTQGLPTTPEQLGEHHCIIDSNFRIGKQWPFISPKGRAETINVQSGLAVNSPQAVREIAIADGGIAMTPNFIVEDALADGRLLRVMPEYTTLEFGLFAIYPHRKYVARKVRCFIDFVLEQFSKK
- protein production: failed

Sequence: MDTMDTLRAFLRVAELGSFTRAAETLGLPKASVSTAVQRLEASLGTQLLHRTTRRVQLTADGTAFYQRSRDLLDDMDELQGMFQRDHSQLRGRLRVDMSAGIARQFVIPALPAFLAQHPQLEIEISGTDRRVDLVREGFDCVLRVGTVEDTSLVGRPLGVLRIINVASAQYLAQRGVPQTLEDLAQHDLVHYVSTLGQRSPGFEYHDGAQYHWLPMRGPVTVNNGDAYLAAARAGLGIIQAPASPLQAHLDSGVLVEVLAQMAPEPMPVTLLYAQRRHLPQRVRLFMDWIAQVMAPHLEPHLP
- protein production: failed

Sequence: MDTMRDRFAPVVSRLLDEDPRVVVVLAEIGKDGFTEARRRHPDRVINVGIREQLLVGAGAGLALTGLRPVLHTFASFLVERPFEQVKLDLGHQDVGAVLVSAAASFDWPAGGYTHMSPGDVALLDTLDGWTMHVPGHPDEAETLLRHAVAAGDDKVYVRLSVQSNARRRAVDGERFLTVREGRAGVVVAVGPLLDPVLEATEGLDVTVLYATTVRPFDAVALRRATETAGTDVVLVEPYLAGTSTAAANDALHDVPHRVLGLGVGRPELRRYGSVDEHMAAHGLDAGSLRQRIAEFAGAPARA
- protein production: failed

Sequence: MDTNNFTVKVEYVDADGAEIAPSDILTDYHYVSTPKDIPGYKLREIPHNATGNITDTGIIVRYIYLEHHHHHH
- protein production: not failed

Sequence: MDTSLPSAILNNMVTATLILDDGLAIRYANPAAELLFSQSAKRIVEQSLSQLIQHASLDLALLTQPLQSGQSITDSDVTFVVDGRPLMLEVTVSPITWQRQLMLLVEMRKID
- protein production: not failed

Sequence: MDVDVDVDVEMDMDMDMYVALVEVEVEVFLLRTQILTESRKGRMITNMKKPNGNVTNVCDRCGGNGHWFHTCRIPKYLVELYKQSLKQDGKNTETNLVYEKGEDDTTHMELDDFLTHDGNIDS
- protein production: failed

Sequence: MDVEDYITLFLSLWIIASALAVKSVDVFLTLTLIGLLITLEVGGLFLSKEQKENLQPLIEILLLVFAVIVVKKVYEVLSG
- protein production: failed

Sequence: MDVLIFNSWHWWTHTSGLQPWDYMREGNQLYKDMNRLVAYYKGLNTWARWINNNIVPSRTQVFFQGVSPVHYDGREWNEPLKSCNGQTQPFMGQRYPGGLPLGWVVVNKVLSRIRKPVHLLDLTTLSEYRKDAHPSLYNGISKDLDCSHWCLPGLPDTWNLLLYSSLTS
- protein production: failed

Sequence: MDVLIHLFVGLHIIGIAALLGGFLTQMKAMGRGTARFVPGMLHGALTMLVTGVALVGLNQADDHSVNTIKIGVKLALLIVILGLVYVKRDEEQVDKGLFGLVGLLTTANIFIAVLWT
- protein production: failed

Sequence: MDVLRKQEILPQLPKLDKYERKSSCGNTWQGSLSETESWREKLRYLTDYRLERGRFDKDTDFLSTFQPKQNEVQRNNISFEFDSDKSSRKTDFPGILTERPVLLRTNQEPDVYGARLRELSAANAEGERNVFHEDKTSSSQSKLPSFEIFSAIGQKEDIPGYQGGCLRGETVLKTAAVASPQIADRNSRVSFHDGGILQPINSPTGFSQPRNDNNSYKTSSSEENLYSIRQLPWSEYARTRNYDCVEPSLGVSISDEQRRFGENALCMSVSQPMYEEPHPLVTLRSTEGLTQEQKQLRR
- protein production: failed

Sequence: MDVSGQLNTETVGSSLRKIRSFSHYEKHDEVFHSDQSHIVVVHNGQLRVQTGDCTIDVVAGSGVFLSQGDYLLEYSPQGGNYHSSIIEFDNELVSQLLQKHSDLLMTLPKVDKLNSGLFSFGLNILIEQVLSGMKTLEEQSYPDAIMRLKYEEMLILLLHSQGGEVLYALLSQQTNRTSDRLRRFMEQHYLKEWKLTDYAQEFGASLTTFKELFNEHYGISPRAWISERRLLHAHKLLLTSKMSIVDVAMEAGFSSQSYFTQSYRRRFGTTPSKVRSGDEQVAIAN
- protein production: failed

Sequence: MDVTVSTDDGYRVNNLGLMSSRQNYMIFGGFVAIAGIIIVLVGEKFKPSANSVKCPYCAELISAEAVKCKHCGSDVTPSKTIVSADDAEASDRLADVNVKLIAGVVLAVFAAIIGAIIFHRQ
- protein production: failed

Sequence: MDWEERENPKRLVKTFAFPNFREALDFANRVGALAERENHHPRLTVEWGRVTVEWWTHSAGGVTEKDREMARLTDALLQR
- protein production: not failed

Sequence: MDYFGLAAKYIPFVTLGLLPIMNPLSTVPLFLELTKRMSPERKHQQARRACLYALSILAVFLFIGNGIITLFGISLAGIRVAGGLIILVLAFRMLFSGEGEEASIETEATEIKRANLDFSFSPLAMPSLAGPGSIAVVMSYGSQIPDDALVFGHFIVICGISITVLIAYIALAGSAWIAKFLGEHGIQAVTKIMGFLLTCIAVQFIASGIRDFSQTL
- protein production: failed

Sequence: MDYSQYHVEQTQEITELVTRTFSKSEGVDEGTLIGALIKDLFATTDSDDMFIFVAKDNGKIVGSIFFTRLTFEIDTTAFLLCPVVIDTEYQNKGVGQTLINHGLEVLKQEGVELVFTYGEPKFYERVGFEIVSEEQFKSPIPLSYLYSWLAQSLNDEVLTYIPGRSKCVAALNNLRLW
- protein production: failed

Sequence: MDYTASYYTDEELAKLFKAAKGDPLELPIVLAAYYGLRRSEIIGLRWDAIDFNPDDPKITIQFTVTEVNFGDGQGNVIIEKEGTKSKASKRTLPLVKPIADLLLQKKKDIENNRRLCGSCYNDKYLDFVHVNEIGERMKPNYISQHFALLLEKHGLKKIRFHDLRHSCASLLYANGVSLKQIQEWLGHSDISTTANIYTHLDYNSKIATANAILPVLFDQLEHHHHHH
- protein production: failed

Sequence: MEAEVWEAEGYNLVLDSDLYDADGYDVPDPGLLTEKNELTFTEPSQVLPFLTSSQQWQSLTPRARARRLWLLLRTSLHEVVEKEKRAELRAARLTHGLEPLRRLEVAAGLRSVAQDPVGGRFVVLDGAGRLHLHKEDGWAQETLLAPVRLTGLVTVLGPLGAVGRFVGWGPAGLAILRPNLSLLWLSEQGVGRAPGWAPTCCLPVPDLRLLLVAEMNSSLALWQFRSGGRRLVLRGSALHPPPSPTGRLMRLAVAPVPPHHVLRCFAAYGSAVLTFDLHAWTLVDVRRDLHKTTISDLAYCEEVEAMVTASRDSTVKVWEADWQIRMVFVGHTGPVTAMTVLPNTTLVLSASQDGTLRTWDLQAAAQVGEVALGFWGQDKLSRRVGRLLAPVRPGWPVLSLCASSMQLWRVRELYSPLAQLPAKVLHVQVAPALPAPAHQSLPTRLVCACADGSVYLLSAATGRIVSSLLLEPEDCAAAVAYCLPREALWLLTRAGHLVRANAARCPMSVLHRVCPPPPPAPQPCCLHLYSHLTDLGGAFSSWEIVRQHWGELRCSSVACAWKNKNRYLPVVGHTDGTLSVLEWLSSKTVFQTEAHSPGPVVAIASTWNSIVSSGGDLTVKMWRVFPYAEESLSLLRTFSCCYPAVALCALGRRVTAGFEDPDSATYGLVQFGLGDSPRLDHRPQDDPTDHITGLCCCPTLKLYACSSLDCTVRIWTAENRLLRLLQLNGAPQALAFCSNSGDLVLALGSRLCLVSHRLYLPTSYLVKKMCRKAPDVVDDPPLPLMSQESLTSAQLQRLTNLHGAASLRSHAGLLSPPGGPPFPLWVGAWRCGALWS
- protein production: failed

Sequence: MEAKLQVGVLGFGTVGSGVIHILEEHQEKISQVTGYHISVKKVLVRDLEKNRRYETKGFELTTNPSDVLDDPEIAVVVEVMGSITTAREYILQALKAGKHVVTANKDLIALHGDELVAVAQANNCDLFYEASVAGGIPILRTIVNSLAADKIQKVMGIVNGTTNFMLTKMTTEKKSYEEVLAEAQALGFAESDPTNDVDGIDAARKMVIMTRLAFGMNVNLDNVETSGIRGISPEDIEVAYQLGYKIKLVGTAEETNGTVNVNVGPVLLPKAHPLAGVNYENNAVFVTGAAVGETMFYGPGAGELPTATSVVSDLITVAKNSRLGTNGNAFNSYKHETKHTPKEQVFSKYYLRLTMDDKTGTFLKLTQIFAEAGVGFDKILQQPYDDFTATVVIVTHSTSQAQLEQAITRVKNEPEMQMLAKYSVVEG
- protein production: not failed
